Test results: patent US20190106498A1, “TREATMENT FOR ACUTE MYELOID LEUKEMIA” (priority 2017, published 2019)

How the values were obtained:
[1] = Phase I/II trial: adverse events and toxicity
Method: Subjects received a loading dose of ARGX-110 on Day −14, followed by administration of ARGX-110 in combination with standard doses of AZA. Doses of ARGX-110 were administered intravenously every 2 weeks (loading dose at Day −14 and further doses on Days 3 and 17) in combination with standard doses of AZA to determine the dose limiting toxicity (see FIG. 4). The first patient of each cohort was monitored until day 7 before a second patient was included. […] The ARGX-110 dose level in the first cohort in Phase I was 1 mg/kg body weight.
All subjects in the study received a single loading dose of ARGX-110 on Day −14, at the same dose level as the bi-weekly dose. Subjects in Phase I of the study received one of the following treatments: • Cohort 1: 1 mg/kg body weight IV on Days 3 and 17 of a 28-day cycle • Cohort 2: 3 mg/kg body weight IV on Days 3 and 17 of a 28-day cycle • Cohort 3: 10 mg/kg body weight IV on Days 3 and 17 of a 28-day cycle • Cohort 4: 20 mg/kg body weight IV on Days 3 and 17 of a 28-day cycle

LSCs = assay: Methylcellulose colony assays of patient mononuclear cells (LSC number/frequency, ELDA); format: in vivo, human
Method: FIGS. 9A-9F αCD70 mAb treatment reduces CD34^+CD38^− AML stem/progenitor cell frequencies in AML patients. (FIG. 9A) Colony formation of P2. 10^4 BM MNCs of patient P002 at diagnosis (SCR) and 14 days after administration of ARGX110 (1 mg/kg i.v., time point 0, or C1D1) were plated in methylcellulose and colony formation was assessed 2 weeks later. (FIG. 9B) Fold change in colony formation of different patients treated with indicated doses of ARGX110. (FIG. 9C) Colony formation at limiting dilution from P2. (FIG. 9D) Stem cell frequencies at SCR and Time point 0 determined in enhanced limiting dilution experiments for P2 and different patients treated with indicated doses of ARGX110. Data are represented as mean±S.D. Statistics: (a, b, e) Student's t-test; (FIG. 9E): χ^2 test; **, P<0.01; ***, P<0.001. (FIG. 9F) Colony formation of P2. 10^4, 5×10^3, 10^3 and 10^2 BM MNCs of patient P002 at diagnosis (SCR), 14 days after administration of ARGX110 (1 mg/kg i.v., time point 0, or C1D1) and after combination treatment (“combi”) were plated in methylcellulose and colony formation was assessed 2 weeks later.
To assess bone marrow blasts, bone marrow aspirates taken at the various time points were analysed. Methylcellulose colony assays using FACS sorted monocytes (mononuclear cells (CD45^dim) were selectively sorted by excluding doublets, dead cells and lymphocytes using Annexin V and antibodies for CD19 and CD4/CD8) were used to assess the number of LSCs in the bone marrow. In addition, bone marrow blast percentages were also assessed by cell morphology and flow cytometric analysis.
To further explore the impact of the mono and combination therapies on the LSC populations in patients, methylcellulose colony assays using FACS sorted ex vivo monocytes were performed. Mononuclear cells (CD45^dim) were selectively sorted by excluding doublets, dead cells and lymphocytes using Annexin V and antibodies for CD19 and CD4/CD8 and serially plated on methylcellulose for 14 days.
Bone marrow aspirate taken at day 1 was compared to bone marrow aspirate taken before administration of the ARGX-110 loading dose. Methylcellulose colony assays using FACS sorted monocytes (mononuclear cells (CD45^dim) were selectively sorted by excluding doublets, dead cells and lymphocytes using Annexin V and antibodies for CD19 and CD4/CD8) were used to assess the number of LSCs in the bone marrow.

AML LSCs = assay: Colony plating assay of AML LSCs; format: cell-based, human; conditions: P6, P8, P11; all disease risk categories
Method: FIGS. 3A-3F Anti-CD70/decitabine co-treatment reduces re-plating capacity of human CD34+CD38− AML stem/progenitor cells. […] Colonies and cells were enumerated after 14 days. (FIG. 3A) Colonies per 1×10^3 plated cells. (FIG. 3B) Cells per colony. (FIG. 3C) Serial re-plating experiments. (d-f) FACS-purified lin-CD90+CD34+CD38− stem/progenitor cells from BM of “healthy” donors were cultured and plated in methylcellulose as described in (a-c). (FIG. 3D) Colonies per 1×10^3 plated cells. (FIG. 3E) Cells per colony. (FIG. 3F) Serial re-plating experiments. Data are represented as mean±S.D. Statistics: One-way-ANOVA. Dunnett's post-test (vs. αCD70/D); *, P<0.05; **, P<0.01; ***, P<0.001.

AML = assay: Phase I/II trial of ARGX-110 with AZA: clinical response; format: in vivo, human; conditions: for Time to best response: cycle/day
From the text: The study included a screening phase (between Day −35 and Day −14), a loading dose of ARGX-110 (Day −14) and an open-label treatment phase during which subjects visited the study center for administration of the study drug (Day −14 until disease progression), and end-of-treatment (EOT) evaluations performed within 7 days after the last ARGX-110 treatment. Additional follow-up evaluations were scheduled at 30 and 60 days (±7 days) after the EOT date. The 60-days follow-up visit was also the end-of-study (EOS) visit.
Clinical response to treatment was categorised according Table 3: […]

[2] = patient 1001002, loading dose 1 mg/kg
[3] = patients treated for sufficient time to assess response

B1: ARGX-110: IgG1 anti-CD70 antibody with defucosylated Fc region; VH SEQ ID NO: 4, VL SEQ ID NO: 8 (antibody, V domains shown)
VH: EVQLVESGGGLVQPGGSLRLSCAASGFTFSVYYMNWVRQAPGKGLEWVSDINNEGGTTYYADSVKGRFTISRDNSKNSLYLQMNSLRAEDTAVYYCARDAGYSNHVPIFDSWGQGTLVTVSS
VL: QAVVTQEPSLTVSPGGTVTLTCGLKSGSVTSDNFPTWYQQTPGQAPRLLIYNTNTRHSGVPDRFSGSILGNKAALTITGAQADDEAEYFCALFISNPSVEFGGGTQLTVLG
modifications: IgG1, defucosylated Fc; Custom antibody fragment
[1]; Cohort 1 (1 mg/kg), with AZA
  Anaemia, Grade 3-5 adverse events: (patients): 1
  Anaemia, Grade 3-5 adverse events: Events: 4
  Febrile Neutropenia, Grade 3-5 adverse events: (patients): 2 (2)
  Febrile Neutropenia, Grade 3-5 adverse events: Events: 2 (2)
  Leukopenia, Grade 3-5 adverse events: (patients): 1 (1)
  Leukopenia, Grade 3-5 adverse events: Events: 1 (1)
  Neutropenia, Grade 3-5 adverse events: (patients): 1
  Neutropenia, Grade 3-5 adverse events: Events: 2
  Pleuropericarditis, Grade 3-5 adverse events: (patients): 1 (1)
  Pleuropericarditis, Grade 3-5 adverse events: Events: 1 (1)
  Thrombocytopenia, Grade 3-5 adverse events: (patients): 2
  Thrombocytopenia, Grade 3-5 adverse events: Events: 8
[1]; Cohort 2 (3 mg/kg), with AZA
  Anaemia, Grade 3-5 adverse events: (patients): 3
  Anaemia, Grade 3-5 adverse events: Events: 10
  Constipation, Grade 3-5 adverse events: (patients): 1 (1)
  Constipation, Grade 3-5 adverse events: Events: 1 (1)
  Fever, Grade 3-5 adverse events: (patients): 1 (1)
  Fever, Grade 3-5 adverse events: Events: 1 (1)
  Hypertension, Grade 3-5 adverse events: (patients): 1
  Hypertension, Grade 3-5 adverse events: Events: 2
  Hypokalaemia, Grade 3-5 adverse events: (patients): 1 (1)
  Hypokalaemia, Grade 3-5 adverse events: Events: 1 (1)
  Leukopenia, Grade 3-5 adverse events: (patients): 1 (1)
  Leukopenia, Grade 3-5 adverse events: Events: 1 (1)
  Neutropenia, Grade 3-5 adverse events: (patients): 1
  Neutropenia, Grade 3-5 adverse events: Events: 4
  Proctitis, Grade 3-5 adverse events: (patients): 1
  Proctitis, Grade 3-5 adverse events: Events: 2
  Thrombocytopenia, Grade 3-5 adverse events: (patients): 3 (3)
  Thrombocytopenia, Grade 3-5 adverse events: Events: 3 (3)
[1]; Cohort 3 (10 mg/kg), with AZA
  Disease Progression, Grade 3-5 adverse events: (patients): 1 (1)
  Disease Progression, Grade 3-5 adverse events: Events: 1 (1)
  Febrile Neutropenia, Grade 3-5 adverse events: (patients): 1 (1)
  Febrile Neutropenia, Grade 3-5 adverse events: Events: 1 (1)
  Thrombocytopenia, Grade 3-5 adverse events: (patients): 1
  Thrombocytopenia, Grade 3-5 adverse events: Events: 2
[1]; Cohort 4 (20 mg/kg), with AZA
  Anaemia, Grade 3-5 adverse events: (patients): 1
  Anaemia, Grade 3-5 adverse events: Events: 2
  Febrile Neutropenia, Grade 3-5 adverse events: (patients): 1 (1)
  Febrile Neutropenia, Grade 3-5 adverse events: Events: 1 (1)
  Thrombocytopenia, Grade 3-5 adverse events: (patients): 2 (2)
  Thrombocytopenia, Grade 3-5 adverse events: Events: 2 (2)
[1]; all cohorts
  Anaemia, Grade 3-5 adverse events: Total: 16
  Constipation, Grade 3-5 adverse events: Total: 1
  Disease Progression, Grade 3-5 adverse events: Total: 1
  Febrile Neutropenia, Grade 3-5 adverse events: Total: 4
  Fever, Grade 3-5 adverse events: Total: 1
  Hypertension, Grade 3-5 adverse events: Total: 2
  Hypokalaemia, Grade 3-5 adverse events: Total: 1
  Leukopenia, Grade 3-5 adverse events: Total: 1
  Neutropenia, Grade 3-5 adverse events: Total: 6
  Pleuropericarditis, Grade 3-5 adverse events: Total: 1
  Proctitis, Grade 3-5 adverse events: Total: 2
  Thrombocytopenia, Grade 3-5 adverse events: Total: 15
[1]; monotherapy or in combination with aza
  toxicity: did not result in any observed increase in toxicity
LSCs; FIG. 9F, after monotherapy (C1D1) and combination therapy (C4D1)
  reduction in LSC frequency compared to baseline: ~24 fold
LSCs; following therapy (data not shown)
  number of cells per colony: reduced
LSCs; monotherapy, then combination
  circulating LSC levels: reduced
LSCs; patient 1001001, single dose 1 mg/kg, day 1 vs before loading dose, ELDA
  factor of reduction of the number of LSCs in the bone marrow: 140,000
LSCs; [2]
  cell number per colony: reduced
  factor of reduction of LSCs in the bone marrow: 2
LSCs; patient 1001002, loading dose 1 mg/kg, all informative serial dilution concentrations
  decrease of colony formation: greater than 50%
AML LSCs
  number of colonies formed by AML LSCs: reduce the number of colonies
AML; Cohort 1 (1 mg/kg) with AZA, one line per patient, 1 mg/kg
  Time to best response: EOT
AML; Cohort 2 (3 mg/kg) with AZA, one line per patient, 3 mg/kg
  Time to best response: EOT
AML; Cohort 4 (20 mg/kg) with AZA, one line per patient, 20 mg/kg
  Best response to date: No response
AML; each of the 1 mg/kg, 3 mg/kg and 10 mg/kg cohorts
  patients in each cohort showing complete remission: 2 of the 3
AML; [3]
  patients responding (response rate): more than 90%
  responding patients / assessed patients: 10/11
